This note sets out measurements from article PMC11371196, “PLASMODESMATA-LOCATED PROTEIN 6 regulates plasmodesmal function in Arabidopsis vasculature” (The Plant Cell, 2024).

For one experiment, the target named is free MBP (UniProt P0AEX9 27-396 = MBP). In words: pull-down; 1 μg biotinylated peptide with 1 μg MBP or MBP fusion protein in 300 μL binding buffer (50 mM Tris pH 7.5, 150 mM NaCl, 0.05% NP-40), 4 °C overnight; Dynabeads MyOne Streptavidin C1; immunoblot with MBP antibody. The settings on record: both partners purified.
Experiment [1] has as its target T1, maltose binding protein fused SUS6 (Arabidopsis thaliana, UniProt Q9FX32 1-942).
T1 construct: SUCROSE SYNTHASE 6 (SUS6), Arabidopsis thaliana, At1G73370; also called MBP-SUS6; pET-MBP-SUS6; source: E. coli Rosetta, purified (amylose resin); not shown: MBP, N-terminal, kept
Described as above. The settings on record: both partners purified.

Where no end group is shown, it is not given here.

T1 sequence (Q9FX32 whole entry, the tested form may be a part): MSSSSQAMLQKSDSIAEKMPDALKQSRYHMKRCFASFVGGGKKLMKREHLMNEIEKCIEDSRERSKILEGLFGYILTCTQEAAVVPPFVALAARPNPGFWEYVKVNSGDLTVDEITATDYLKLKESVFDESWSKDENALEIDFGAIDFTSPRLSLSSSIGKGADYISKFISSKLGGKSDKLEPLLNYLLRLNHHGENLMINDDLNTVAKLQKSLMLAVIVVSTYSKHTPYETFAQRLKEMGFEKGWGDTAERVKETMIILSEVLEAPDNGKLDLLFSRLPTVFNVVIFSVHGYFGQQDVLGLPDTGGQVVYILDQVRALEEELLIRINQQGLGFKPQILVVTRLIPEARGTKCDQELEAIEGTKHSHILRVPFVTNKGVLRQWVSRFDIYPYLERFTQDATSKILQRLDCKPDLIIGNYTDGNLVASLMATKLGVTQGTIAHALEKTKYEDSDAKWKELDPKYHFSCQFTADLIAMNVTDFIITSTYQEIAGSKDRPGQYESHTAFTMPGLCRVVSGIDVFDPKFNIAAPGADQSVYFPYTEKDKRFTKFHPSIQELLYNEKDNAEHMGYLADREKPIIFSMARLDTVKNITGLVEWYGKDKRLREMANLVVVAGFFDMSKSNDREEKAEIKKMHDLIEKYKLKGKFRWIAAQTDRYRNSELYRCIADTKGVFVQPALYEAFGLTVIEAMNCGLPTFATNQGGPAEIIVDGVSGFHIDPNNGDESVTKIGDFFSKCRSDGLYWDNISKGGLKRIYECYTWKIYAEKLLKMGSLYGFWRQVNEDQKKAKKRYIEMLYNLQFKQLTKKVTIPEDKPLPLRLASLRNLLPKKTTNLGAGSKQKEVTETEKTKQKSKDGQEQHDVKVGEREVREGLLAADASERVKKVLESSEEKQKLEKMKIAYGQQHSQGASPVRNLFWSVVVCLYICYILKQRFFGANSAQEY

B1: biotinylated C-terminal tail of PDLP7 (peptide)
peptide: RGVCSRGGDFSILHSFTLI
modifications: also: biotin (position not given here)
notes: C-terminal tail of PDLP7, Arabidopsis thaliana, At5G37660; also called PDLP7-CT-biotin; source: synthetic peptide, bought: PEPTIDE 2.0
Regarding B1, the binding result in the experiment with free MBP was “binds”.

B2: biotinylated C-terminal tail of PDLP6 (peptide)
peptide: AKSCERGKGGK
modifications: also: biotin (position not given here)
notes: C-terminal tail of PDLP6, which faces the cytoplasmic sleeve; Arabidopsis thaliana, At2g01660; also called PDLP6-CT-biotin; source: synthetic peptide, bought: PEPTIDE 2.0
With B2, the binding result in experiment [1] was “binds”.

B3: biotinylated C-terminal tail of PDLP5 (peptide)
peptide: GKCCRKLQDEKWCK
modifications: cysteine pairing not given here; also: biotin (position not given here)
notes: C-terminal tail of PDLP5, Arabidopsis thaliana, At1g70690; also called PDLP5-CT-biotin; source: synthetic peptide, bought: PEPTIDE 2.0
With B3, in experiment [1], the binding result is listed as “binds”.
